Measurements from paper PMC3983041, “Interplay of the Serine/Threonine-Kinase StkP and the Paralogs DivIVA and GpsB in Pneumococcal Cell Elongation and Division” (PLoS Genetics, 2014).

Columns and labels:
Assay in all cases: SPR; BIAcore T100; EzrA or GpsB covalently coupled through amino groups to a CM5 chip; analytes 0.002-1 µM at 30 µL/min in 10 mM HEPES pH 7.4, 150 mM NaCl, 0.005% surfactant; apparent KD from the equilibrium signal (Req); triplicate
[1] = target: EzrA without its N-terminal transmembrane domain (Streptococcus pneumoniae (strain R800))
[2] = target: T1, inactive cytoplasmic domain of StkP-K42R (Streptococcus pneumoniae (strain R800), UniProt Q8DNS0 1-342, K42R); conditions: both partners purified
T1 construct: also called StkP-K42R cytoplasmic domain; source: E. coli BL21(DE3), purified (Ni-NTA agarose)
T1 sequence: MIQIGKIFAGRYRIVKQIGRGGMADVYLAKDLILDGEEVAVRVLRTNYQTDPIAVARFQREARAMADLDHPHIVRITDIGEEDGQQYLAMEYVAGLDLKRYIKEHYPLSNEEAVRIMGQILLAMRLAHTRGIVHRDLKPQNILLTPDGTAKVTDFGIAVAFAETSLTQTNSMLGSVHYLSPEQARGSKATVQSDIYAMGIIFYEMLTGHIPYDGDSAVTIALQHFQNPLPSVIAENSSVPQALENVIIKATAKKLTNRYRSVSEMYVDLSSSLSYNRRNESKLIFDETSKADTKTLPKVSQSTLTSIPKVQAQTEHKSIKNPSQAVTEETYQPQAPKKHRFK

[3] = target: T2, DivIVA (Streptococcus pneumoniae (strain R800), UniProt Q8CWP9 1-262); conditions: both partners purified
T2 construct: DivIVA of Streptococcus pneumoniae, PCR from chromosomal DNA of strain R800, cloned in pETPhos; also called Spn-DivIVA; DivVA; source: E. coli BL21(DE3), purified (Ni-NTA agarose)
T2 sequence (looked up): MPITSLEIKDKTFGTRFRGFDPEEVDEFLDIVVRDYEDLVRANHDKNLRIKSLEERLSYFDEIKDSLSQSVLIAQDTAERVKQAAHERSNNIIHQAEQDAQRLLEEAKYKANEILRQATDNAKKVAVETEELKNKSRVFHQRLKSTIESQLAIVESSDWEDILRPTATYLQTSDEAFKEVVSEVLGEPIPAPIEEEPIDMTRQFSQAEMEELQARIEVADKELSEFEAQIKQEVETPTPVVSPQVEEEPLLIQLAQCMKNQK

Chain of EzrA without its N-terminal transmembrane domain (Streptococcus pneumoniae (strain R800)) (B1IAY5 28-575 limits assumed): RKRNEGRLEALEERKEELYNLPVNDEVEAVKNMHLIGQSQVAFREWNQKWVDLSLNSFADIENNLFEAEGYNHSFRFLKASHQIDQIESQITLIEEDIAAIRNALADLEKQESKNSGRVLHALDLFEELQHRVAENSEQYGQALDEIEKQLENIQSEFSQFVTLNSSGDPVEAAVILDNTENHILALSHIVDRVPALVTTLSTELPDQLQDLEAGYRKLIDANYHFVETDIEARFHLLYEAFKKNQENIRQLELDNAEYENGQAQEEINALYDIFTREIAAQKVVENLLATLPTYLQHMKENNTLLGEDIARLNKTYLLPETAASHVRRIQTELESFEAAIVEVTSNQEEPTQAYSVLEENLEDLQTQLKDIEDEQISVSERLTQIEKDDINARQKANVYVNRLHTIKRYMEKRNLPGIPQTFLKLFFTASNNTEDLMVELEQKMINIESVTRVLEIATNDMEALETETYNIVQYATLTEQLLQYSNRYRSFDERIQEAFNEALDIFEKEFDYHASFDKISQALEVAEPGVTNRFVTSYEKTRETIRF

## GpsB (from UniProt C1CIN3 1-109) (natural protein)
[1]
  Kd: 770 nM

## FtsZ (from UniProt A0A0H2ZNE0 1-419) (natural protein)
[1]
  Kd: 295 nM

B1: DivIVA (natural protein)
chain: MPITSLEIKDKTFGTRFRGFDPEEVDEFLDIVVRDYEDLVRANHDKNLRIKSLEERLSYFDEIKDSLSQSVLIAQDTAERVKQAAHERSNNIIHQAEQDAQRLLEEAKYKANEILRQATDNAKKVAVETEELKNKSRVFHQRLKSTIESQLAIVESSDWEDILRPTATYLQTSDEAFKEVVSEVLGEPIPAPIEEEPIDMTRQFSQAEMEELQARIEVADKELSEFEAQIKQEVETPTPVVSPQVEEEPLLIQLAQCMKNQK
[1]
  Kd: 530 nM

B2: GpsB (natural protein, Streptococcus pneumoniae (strain R800), UniProt C1CIN3 1-109, looked up)
chain: MASIIFSAKDIFEQEFGREVRGYNKVEVDEFLDDVIKDYETYAALVKSLRQEIADLKEELTRKPKPSPVQAEPLEAAITSSMTNFDILKRLNRLEKEVFGKQILDNSDF
notes: GpsB of Streptococcus pneumoniae, PCR from chromosomal DNA of strain R800, cloned in pETPhos; In the SPR either coupled to the chip by its amino groups or injected as analyte; also called Spn-GpsB; source: E. coli BL21(DE3), purified (Ni-NTA agarose)
[2]
  Kd: 500 ± 60 nM
[3]
  Kd: 85 ± 14 nM
